PMC9478404

Columns and labels:
Assay in all cases: ITC; DBD (500 μM) titrated into NRD (50 μM) at 19 °C; 150 mM NaCl, 20 mM Tris, 1 mM BME (pH 8); MicroCal VP-ITC; mean of three technical replicates
[1] = molecular target: B-Myb NRD^510–600 (C-terminal half of the NRD) (human) (UniProt P10244)
[2] = molecular target: B-Myb NRD^510–600 S577A (human) (UniProt P10244)
[3] = molecular target: B-Myb NRD^510–600 T538A (human) (UniProt P10244)
Chain of B-Myb NRD^510–600 T538A (human) (P10244 510-600 T538A): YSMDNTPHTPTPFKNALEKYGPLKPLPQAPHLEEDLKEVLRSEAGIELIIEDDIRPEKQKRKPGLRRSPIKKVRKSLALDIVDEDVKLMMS

Chain of B-Myb NRD^510–600 S577A (human) (P10244 510-600 S577A): as the sequence (P10244 510-600 T538A) above, with A29T, S68A counted along it
Chain of B-Myb NRD^510–600 (C-terminal half of the NRD) (human) (P10244 510-600): as the sequence (P10244 510-600 T538A) above, with A29T counted along it

Kd [1]: 4.9 µM | Kd [2]: 3.2 µM | Kd [3]: 6.5 µM
Substance: B-Myb DNA-binding domain (B-Myb^34–183) (from UniProt P10244-1 34-183) (domain or fragment)
